According to paper PMC4467669, “Targeted inhibition of the Shroom3–Rho kinase protein–protein interaction circumvents Nogo66 to promote axon outgrowth” (BMC Neuroscience, 2015):
Each block holds one molecule with its values, some of them ahead of it.

Legend:
Shroom3 = biological target: T1, Shroom3 (Mus musculus, UniProt Q9QXN0); assay: ELISA of purified SD2 / biotin-R2-C1 interaction; wash-out irreversibility, DTT block and Cys-to-Ala mutagenesis; assay type: binding
T1 construct: SD2 domain (aa 1,563–1,986)
T1 sequence (Q9QXN0 1563-1986): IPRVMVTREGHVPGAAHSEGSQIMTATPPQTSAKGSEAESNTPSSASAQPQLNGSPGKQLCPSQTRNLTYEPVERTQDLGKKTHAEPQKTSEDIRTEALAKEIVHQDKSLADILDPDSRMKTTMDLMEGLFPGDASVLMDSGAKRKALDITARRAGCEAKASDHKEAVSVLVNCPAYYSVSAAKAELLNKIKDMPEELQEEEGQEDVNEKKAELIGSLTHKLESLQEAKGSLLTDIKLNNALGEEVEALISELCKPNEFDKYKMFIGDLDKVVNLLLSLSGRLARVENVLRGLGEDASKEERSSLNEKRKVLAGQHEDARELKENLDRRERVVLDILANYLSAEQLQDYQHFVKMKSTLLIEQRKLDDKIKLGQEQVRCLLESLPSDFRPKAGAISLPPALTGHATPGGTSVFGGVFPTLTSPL
T1 sequence (P70336 698-957 partner): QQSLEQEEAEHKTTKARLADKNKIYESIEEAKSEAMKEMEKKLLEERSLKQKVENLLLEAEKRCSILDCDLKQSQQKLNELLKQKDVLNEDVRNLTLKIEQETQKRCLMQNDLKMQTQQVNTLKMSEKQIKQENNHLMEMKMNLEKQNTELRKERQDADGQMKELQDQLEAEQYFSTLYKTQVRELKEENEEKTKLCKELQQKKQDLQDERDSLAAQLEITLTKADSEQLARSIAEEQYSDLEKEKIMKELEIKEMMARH

[1] = biological target: T2, Shroom3 SD2 domain (aa 1,563–1,986), GST removed (mouse, UniProt Q9QXN0 1563-1986); assay: ELISA; 0.5 µg SD2 immobilised on 96-well Immulon 2B high binding plates; Biotin-R2C1 0 to 1,778 nM (11 points) for 1 h at 25°C in TBS-1 (20 mM Tris HCl, 150 mM KCl, 0.5% Triton X-100, pH 7.9) with 0.5% BSA; NeutrAvidin-HRP; apparent Kd, hyperbolic fit; conditions: both partners purified
T2 construct: Shroom3 SD2 domain, mouse, aa 1,563-1,986; Expressed as GST-SD2 from pGST-SD2; also called WT SD2; SD2 wild type; source: E. coli, purified (glutathione agarose; GST removed with TEV protease)
T2 sequence (looked up): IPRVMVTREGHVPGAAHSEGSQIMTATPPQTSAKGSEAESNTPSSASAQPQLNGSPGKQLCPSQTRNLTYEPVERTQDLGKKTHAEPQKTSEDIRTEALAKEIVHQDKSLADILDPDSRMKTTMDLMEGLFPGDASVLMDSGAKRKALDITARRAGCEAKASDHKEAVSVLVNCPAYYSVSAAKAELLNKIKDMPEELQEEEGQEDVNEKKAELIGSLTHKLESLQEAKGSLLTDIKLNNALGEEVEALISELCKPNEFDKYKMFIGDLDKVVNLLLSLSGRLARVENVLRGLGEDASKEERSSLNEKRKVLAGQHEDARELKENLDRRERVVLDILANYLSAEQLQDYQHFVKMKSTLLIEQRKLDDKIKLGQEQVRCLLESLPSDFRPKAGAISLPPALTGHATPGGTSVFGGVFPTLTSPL

SD2 Cys254Ala (ELISA) = biological target: T3, SD2 Cys254Ala (ELISA) (mouse, UniProt Q9QXN0 1563-1986, Cys254Ala (SD2 numbering; Cys 1816 in full length mouse Shroom3)); assay: ELISA; 150 ng SD2 (wild type or mutant) immobilised on 384-well high-binding plates; CCG-17444 dilutions 30 min at 25°C, then 10 ng biotin-R2C1 (1.5 ng in Figure 4) 1 h at 25°C; buffer A (20 mM Tris HCl, 150 mM KCl, 0.05% Triton X-100, 0.5% BSA, pH 7.9); NeutrAvidin-HRP; also with 1 mM DTT; conditions: both partners purified
T3 construct: Shroom3 SD2 domain, mouse, aa 1,563-1,986; also called Cys254Ala mutant
T3 sequence (looked up): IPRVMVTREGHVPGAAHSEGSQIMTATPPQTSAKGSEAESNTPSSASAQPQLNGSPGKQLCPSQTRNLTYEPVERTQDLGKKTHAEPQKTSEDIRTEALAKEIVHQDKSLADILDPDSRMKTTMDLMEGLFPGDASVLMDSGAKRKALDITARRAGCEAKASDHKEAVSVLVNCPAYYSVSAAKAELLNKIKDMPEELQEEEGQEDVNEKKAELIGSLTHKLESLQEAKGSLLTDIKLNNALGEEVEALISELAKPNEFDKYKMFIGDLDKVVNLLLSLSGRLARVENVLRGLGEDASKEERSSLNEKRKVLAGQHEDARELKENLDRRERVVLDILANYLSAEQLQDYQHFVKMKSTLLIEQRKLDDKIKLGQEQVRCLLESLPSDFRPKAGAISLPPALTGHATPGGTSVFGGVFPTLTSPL

SD2 Cys379Ala (ELISA) = biological target: T4, SD2 Cys379Ala (ELISA) (mouse, UniProt Q9QXN0 1563-1986, Cys379Ala (SD2 numbering; mouse Shroom3 Cys1941)); assay: as above; conditions: both partners purified
T4 construct: Shroom3 SD2 domain, mouse, aa 1,563-1,986; SD2 Cys379 corresponds to mouse Shroom3 Cys1941 (AAF13269)
T4 sequence (looked up): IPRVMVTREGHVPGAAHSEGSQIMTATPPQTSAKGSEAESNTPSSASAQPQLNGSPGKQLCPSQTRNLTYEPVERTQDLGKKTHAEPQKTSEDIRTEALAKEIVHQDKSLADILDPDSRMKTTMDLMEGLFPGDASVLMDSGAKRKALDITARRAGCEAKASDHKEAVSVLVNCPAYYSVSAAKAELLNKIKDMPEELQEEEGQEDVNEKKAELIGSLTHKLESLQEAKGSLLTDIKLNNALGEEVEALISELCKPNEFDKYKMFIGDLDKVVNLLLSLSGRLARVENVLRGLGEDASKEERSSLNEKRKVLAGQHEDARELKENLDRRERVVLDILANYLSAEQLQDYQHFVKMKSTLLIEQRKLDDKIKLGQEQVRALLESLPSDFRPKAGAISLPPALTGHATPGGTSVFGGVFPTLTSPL

[2] = biological target: T5, SD2 Cys254Ala Cys379Ala (ELISA) (mouse, UniProt Q9QXN0 1563-1986, Cys254Ala (SD2 numbering; Cys 1816 in full length mouse Shroom3) | Cys379Ala …); assay: as above; conditions: both partners purified
T5 construct: Shroom3 SD2 domain, mouse, aa 1,563-1,986; also called double mutant SD2 Cys254Ala Cys379Ala; double Cys to Ala mutant
T5 sequence (looked up): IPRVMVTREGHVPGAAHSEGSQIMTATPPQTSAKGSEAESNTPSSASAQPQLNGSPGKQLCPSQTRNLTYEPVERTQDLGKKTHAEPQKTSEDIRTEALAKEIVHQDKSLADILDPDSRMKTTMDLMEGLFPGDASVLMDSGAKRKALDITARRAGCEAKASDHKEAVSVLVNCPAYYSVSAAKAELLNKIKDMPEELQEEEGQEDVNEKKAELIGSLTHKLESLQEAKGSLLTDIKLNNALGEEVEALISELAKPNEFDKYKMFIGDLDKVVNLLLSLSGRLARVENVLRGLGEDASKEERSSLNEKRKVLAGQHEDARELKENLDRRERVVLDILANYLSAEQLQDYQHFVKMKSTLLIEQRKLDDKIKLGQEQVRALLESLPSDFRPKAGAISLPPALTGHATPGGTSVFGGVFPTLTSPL

[3] = biological target: T2, Shroom3 SD2 domain (aa 1,563–1,986), …; assay: ELISA; competition: SD2 immobilised; 100 ng Biotin-R2C1 incubated 1 h at 25°C with unlabeled R2C1 (1–10 µg); NeutrAvidin-HRP; conditions: both partners purified
[4] = biological target: T6, GST-SD2 wild type (mouse Shroom3 aa 1,563–1,986) (mouse, UniProt Q9QXN0 1563-1986); assay: pull-down; wild type or mutant GST-SD2 (5 μg) bound to glutathione agarose resin, incubated overnight with His-Sumo-R2-C1 (12.5 μg); washed 3× Triton IP buffer, 1× PBS; SDS-PAGE, Coomassie G-250; conditions: both partners purified
T6 construct: Shroom3 SD2 domain, mouse, aa 1,563-1,986; also called wild type GST-SD2; WT SD2
T6 sequence (looked up): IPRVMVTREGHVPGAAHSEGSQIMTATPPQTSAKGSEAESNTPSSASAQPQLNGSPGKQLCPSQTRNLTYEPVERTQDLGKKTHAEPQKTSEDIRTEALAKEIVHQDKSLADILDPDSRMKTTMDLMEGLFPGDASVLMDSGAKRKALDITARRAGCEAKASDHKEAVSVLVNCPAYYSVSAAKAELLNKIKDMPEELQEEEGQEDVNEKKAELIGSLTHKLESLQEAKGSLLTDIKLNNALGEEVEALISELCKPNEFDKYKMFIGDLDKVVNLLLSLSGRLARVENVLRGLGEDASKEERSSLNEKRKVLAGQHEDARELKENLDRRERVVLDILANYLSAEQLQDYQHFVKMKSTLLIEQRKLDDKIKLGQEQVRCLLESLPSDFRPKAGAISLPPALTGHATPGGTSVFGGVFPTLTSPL

[5] = biological target: T7, GST-SD2 Cys254Ala (mouse Shroom3 aa 1,563–1,986, Cys1816Ala) (mouse, UniProt Q9QXN0 1563-1986, Cys254Ala (SD2 numbering; Cys 1816 in full length mouse Shroom3)); assay: as above; conditions: both partners purified
T7 construct: Shroom3 SD2 domain, mouse, aa 1,563-1,986; Probably made in E. coli like the wild type; also called mutant GST-SD2; Cys254Ala SD2
T7 sequence (looked up): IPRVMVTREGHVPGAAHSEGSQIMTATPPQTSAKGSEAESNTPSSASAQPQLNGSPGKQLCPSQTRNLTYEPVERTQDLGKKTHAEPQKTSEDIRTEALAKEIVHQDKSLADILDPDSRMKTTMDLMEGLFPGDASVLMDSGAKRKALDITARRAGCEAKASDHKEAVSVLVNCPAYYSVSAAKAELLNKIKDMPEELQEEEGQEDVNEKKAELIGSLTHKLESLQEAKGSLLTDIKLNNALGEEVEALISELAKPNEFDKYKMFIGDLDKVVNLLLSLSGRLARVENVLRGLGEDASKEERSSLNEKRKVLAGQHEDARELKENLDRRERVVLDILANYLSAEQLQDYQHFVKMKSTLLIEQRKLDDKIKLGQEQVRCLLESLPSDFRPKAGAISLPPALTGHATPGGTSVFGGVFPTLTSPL

Molecule: CC1(C)CC(=O)C2=C(C1)Nc1[nH]c(=S)[nH]c(=O)c1C2c1cccs1 (centres unmarked) [CCG-17444]
- IC50 (Shroom3): 12.4 ± 2.3 µM

- Kd [1]: 0.0049 µM
- binding result (SD2 Cys254Ala (ELISA)): binds
- binding result (SD2 Cys379Ala (ELISA)): binds
- binding result [2]: binds
B1: Biotinylated HisSUMO-R2C1 (mouse ROCK II aa 698–957) (domain or fragment, UniProt P70336 698-957, looked up)
chain: QQSLEQEEAEHKTTKARLADKNKIYESIEEAKSEAMKEMEKKLLEERSLKQKVENLLLEAEKRCSILDCDLKQSQQKLNELLKQKDVLNEDVRNLTLKIEQETQKRCLMQNDLKMQTQQVNTLKMSEKQIKQENNHLMEMKMNLEKQNTELRKERQDADGQMKELQDQLEAEQYFSTLYKTQVRELKEENEEKTKLCKELQQKKQDLQDERDSLAAQLEITLTKADSEQLARSIAEEQYSDLEKEKIMKELEIKEMMARH
modifications: biotin (NHS-PEO4-biotin; on average four biotin molecules per 1 mol of protein)
notes: No removal of the His-SUMO tag is described; also called Biotin-R2C1; biotinylated R2-C1; source: E. coli, purified (HisPur Ni-NTA), biotinylated with NHS-PEO4-biotin

- binding result [3]: binds
- binding result [4]: binds
- binding result [5]: binds
B2: HisSUMO-R2C1 (mouse ROCK II aa 698–957), unlabeled (domain or fragment, UniProt P70336 698-957, looked up)
chain: QQSLEQEEAEHKTTKARLADKNKIYESIEEAKSEAMKEMEKKLLEERSLKQKVENLLLEAEKRCSILDCDLKQSQQKLNELLKQKDVLNEDVRNLTLKIEQETQKRCLMQNDLKMQTQQVNTLKMSEKQIKQENNHLMEMKMNLEKQNTELRKERQDADGQMKELQDQLEAEQYFSTLYKTQVRELKEENEEKTKLCKELQQKKQDLQDERDSLAAQLEITLTKADSEQLARSIAEEQYSDLEKEKIMKELEIKEMMARH
notes: also called Unlabeled R2-C1; unlabeled R2C1; source: E. coli, purified (HisPur Ni-NTA)
